# Data taken from US20200317768A1 (published 2020).
# Target: T1, cynomolgus monkey FcγRIIIaS extracellular domain, C-terminal His-tag (cynomolgus monkey, UniProt A3RFZ7 21-206 (rhesus entry))
# T1 construct: also called cyno FcγRIIIaS; cynoFcγRIIIaS; not shown: His-tag added to C-terminus
# Experiment: SPR (BIACORE); KD of parent SG1 / KD of variant
# T1 sequence (A3RFZ7 21-206): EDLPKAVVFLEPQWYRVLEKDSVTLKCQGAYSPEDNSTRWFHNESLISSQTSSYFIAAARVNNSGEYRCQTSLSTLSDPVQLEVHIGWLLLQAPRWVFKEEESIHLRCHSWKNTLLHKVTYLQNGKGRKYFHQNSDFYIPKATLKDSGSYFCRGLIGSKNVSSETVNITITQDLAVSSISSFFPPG
binder,measurement,value
"MS_M103205H795-SG1/M103202L889-SK1 (antibody, human IgG1, kappa, Parent antibody with SG1 human heavy chain constant region; also called MS1032LO06-SG1) heavy: not shown light: DIVMTQSPATLSLSPGERATLSCTSSQSVYHANWLSWFQQKPGQPPKLLIYWASTLAYGVPSRFSGSGSGTDFTLTISSLQPEDAATYYCAGGYGGGRYAFGQGTKVEIKRTVAAPSVFIFPPSDEQLKSGTASVVCLLNNFYPREAKVQWKVDNALQSGNSQESVTEQDSKDSTYSLSSTLTLSKADYEKHKVYACEVTHQGLSSPVTKSFNRGEC",KD fold (SG1 = 1),1 fold
